From patent US20020137113A1 (Genentech, published 2002) come the findings set out here.

The experiment has as its target trkB.IgG (untagged trk.IgG fusion of the trkB extracellular domain and IgG-1 Fc) (human, UniProt Q16620 32-430). Description: competitive displacement of iodinated NT5 from trkB.IgG in 293 cell supernatant.

Chain of trkB.IgG (untagged trk.IgG fusion of the trkB extracellular domain and IgG-1 Fc) (Q16620 32-822): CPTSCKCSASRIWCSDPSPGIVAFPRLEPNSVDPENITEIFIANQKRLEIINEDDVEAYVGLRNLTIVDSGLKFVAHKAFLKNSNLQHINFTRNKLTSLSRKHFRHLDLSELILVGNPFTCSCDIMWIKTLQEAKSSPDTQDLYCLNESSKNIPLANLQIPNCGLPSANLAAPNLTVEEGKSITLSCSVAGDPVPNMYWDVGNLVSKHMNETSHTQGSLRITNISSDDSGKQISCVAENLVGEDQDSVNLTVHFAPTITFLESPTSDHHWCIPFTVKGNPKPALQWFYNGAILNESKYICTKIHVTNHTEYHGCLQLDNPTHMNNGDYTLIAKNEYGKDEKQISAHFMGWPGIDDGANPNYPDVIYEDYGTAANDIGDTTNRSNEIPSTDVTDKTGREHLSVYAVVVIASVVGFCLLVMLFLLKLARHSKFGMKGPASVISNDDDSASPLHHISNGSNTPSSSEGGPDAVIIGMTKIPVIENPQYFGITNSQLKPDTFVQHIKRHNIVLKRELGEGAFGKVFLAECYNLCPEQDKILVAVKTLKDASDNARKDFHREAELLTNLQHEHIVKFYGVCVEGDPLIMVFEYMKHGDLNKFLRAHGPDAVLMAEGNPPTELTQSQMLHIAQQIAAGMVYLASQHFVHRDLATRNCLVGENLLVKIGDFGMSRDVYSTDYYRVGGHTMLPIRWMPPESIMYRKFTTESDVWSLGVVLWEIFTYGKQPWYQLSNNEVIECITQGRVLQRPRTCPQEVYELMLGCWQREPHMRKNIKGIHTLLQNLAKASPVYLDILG

B1: neurotrophin 5 (NT5) (ligand, UniProt P34130 81-210, looked up)
chain: GVSETAPASRRGELAVCDAVSGWVTDRRTAVDLRGREVEVLGEVPAAGGSPLRQYFFETRCKADNAEEGGPGAGGGGCRGVDRRHWVSECKAKQSYVRALTADAQGRVGWRWIRIDTACVCTLLSRTGRA
notes: It is printed as NTS in several places, which I read as a misprint of NT5; The tracer in the displacement assay was the iodinated form; also called NTS
As to B1, the IC50 worked out at 0.0311 nM.

By IC50 is commonly meant the concentration that inhibits the measured activity by half. Read a low IC50 as inhibition by little substance.
